# Test results published in the DeepSol protein solubility set.
# Assay: soluble on expression in E. coli; label from the status in PepcDB or PDB records
row,Sequence,soluble on expression in E. coli
1,MFEQIKNNVENAIEALKQGKPVVVLDDYDRENEGDLILPGQKATEENIAFMLEHTSGIICLAMDSKKARELNLTPMVAADQNNSTFTTPFTVTIEAKEGVTTGVSAKDRAHTIQVASKADSKAEELARPGHIFPLIANDKGVLGRNGHTEATVDLMKLSGFNSAGVLCELMNKDGTMMKAAELEAFAKKHDLPLLTIAELYQYRLATENFVTKMASSTIPFKKIGELEMSVYKDNFSGDEVVVLSKPYSGNNPLVRMHSSCITGDIFGSLRCDCQDQLHKGIEMISEEGGFFIYLDQEGRGIGLTNKLKAYNLQMNENMDTLEANLALGLPADARKYDLAIQVLKYNNVNRCRLISNNPEKLAALRNVDIETQPVYCEAFVNSHNRNYLITKKIKAKHTIKGI,not soluble
2,MKVLLIIPAYNEEENILRTIASIETFKQEVTHFQHELDYVVINDGSTDGTKQILEANQINAIHLVLNLGIGGAVQTGYKYALENEYDVAVQFDGDGQHDINSLPILLEPLAEGKCDFSIGSRFIPGNEASFQSTKMRRFGIRLLSFCIRMASGKTIYDVTSGYRAGNRKVIAFFAKRYPTNYPEPESIVHLIKKRFVIVERPVNMMERLGGVSSIRALASVKYMLEVGSAILIAAFMKEGDLEHHHHHH,soluble
3,MKIADGVYVHFIPTQKYKTNRIVFRMTGSLNKQTIAKRALVSQMLATANQTYPTVQSFKERLASLYGTQLSTKVSTKGLTHSVDIELTYLKDFFIPMNTSLFWEVLGFLMDCLYNPLSIVAQYQNKVFDIEKQNLMTYLDVDTENNYYYSEVQGRELYFVNEALKVPKYGRVELVEAETSFTAYQEFQSMLTKDRIDIFMVGEFDDYQVLRGLHRFPLEGRQVDLQFSYNQSYSKVVKEKIETRQTSQSILQLGYQFPCQYGDKDYFALIVFNGMLGEFAHSALFTKIREKEGLAYSIGSQFDAFTGLLEIYAGIEKSNRNQAMRGIIRELNHIKLGRFSSSLFNQTKKIIRMNALLSEDHALTLVEQHFNKVIFGDKKISLEDWLDKIEKVTKKDVCRIARQVKLQSLFFLEGVS,not soluble
4,SELLCHEVDPVRRAVRDRNLLRDDRVLQNLLTIEERYLPQCSYFKCVQKDIQPYMRRMVATWMLEVCEEQKCEEEVFPLAMNYLDRFLAGVPTPKSHLQLLGAVCMFLASKLKETSPLTAEKLCIYTDNSIKPQELLEWELVVLGKLKWNLAAVTPHDFIEHILRKLPQQREKLSLIRKHAQTFIALCATDFKFAMYPPSMIATGSVGAAICGLQQDEEVSSLTCDALTELLAKITNTDVDCLKACQEQIEAVLLNSLQQYRQDQRDGSKSEDELDQASTPTDVRDIDL,soluble
5,MDKLKVAELFAGVGGFRLGLENTKEKIFDVTWANQWEPSKKIQHAFDCYNSRFITGEHVNKDIALISDEEIANTKADMVVGGFPCQDYSVARSLSGELGIQGKKGVLFWQIIRFIQNTYPKYLLLENVDRLLKSPSSQRGRDFGVMLSTLNELGYNVEWRVINAADYGNAQRRRRVFIFGYKQDLEHHHHHH,soluble
6,MGSDKIHHHHHHMQKEQCYMCEKSATSAEHVPPKCLFPEFKDAKKNLRVNLITVPSCDEHNGKKSHDDEFLMVSIAGIIGNNSIGYQHYSGKIQRALRRTSYKLLEKVFLRKELVRIGDENKFIEILWGTPDYERLINCFSHIAYGIYHHHFKQKFYGVLKPYLGFLHTNEQNPKAFKAFIKEKVRVELADEPKYGDNLEVFYYQFTKPDNFGIFLVKLCFYQNVDVFVSYMPSGAQKPTHLGFELMNRGIKTIITLGDKEYEFN,not soluble
7,MSLTRPVTLSEPHFSQHTLNKYASLMAQGNGYLGLRASHEEDYTRQTRGMYLAGLYHRAGKGEINELVNLPDILGMEIAINGEVFSLSHEAWQRELDFASGELRRNVVWRTSNGAGYTIASRRFVSADQLPLIALEITITPLDADASVLISTGIDATQTNHGRQHLDETQVRVFGQHLMQGIYTTQDGRSDVAISCCCKVSGDVQQCYTAKERRLLQHTSAQLHAGETVTLQKLVWIDWRDDRQAVLDEWGSASLRQLEICAQQSYDQLLAASTENWRQWWQKRRITVNGGDAHDQQALDYALYHLRIMTPAHDERSSIAAKGLTGEGYKGHVFWDTEVFLLPFHLFSDPTVARSLLRYRWHNLPGAQEKARRSGWQGALFPWESARSGEEETPEFAAINIRTGLRQKVASAQAEHHLVADIAWAVIQYWQTTGDESFIAHEGMALLLETAKFWISRAVRVNDRLEIHDVIGPDEYTEHVNNNAFTSYMARYNVQQALNIARQFGCSDDAFIHRAEMFLKELWMPETQPDGVLPQDDSFMAKPAINLAKYKAAAGKQTILLDYSRAEVNEMQILKQADVVMLNYMLPEQFSAVSCLANLQFYEPRTIHDSSLSKAIHGIVAARCGLLTQSYQFWREGTEIDLGADPHSCDDGIHAAATGAIWLGAIQGFAGVSVRDGELHLNPALPEQWQQLSFPLFWQGCELQVTLDAQRIAIRTSAPVSLRLNGQLISVAEESVFCLGDFILPFNGTATTHQEDEEGHHHHHH,soluble
8,MQADPAIRRFAKKRNKRVDRMILDSNYMHTSIDRYFPNESKRRGRPDIIYLLLEMTQESILNHKNQLRTYVHTRNNQVIRISPITRMPKSYNRFIGLFEDLFEKRIITNNGKELLSMEESSLGDLINSIRRDRTILLHPKGEMRKPSEFISNANILIVIGGFSEGDFISDTSFINERYAIFDQELTIWSVANEMVANYERAVGLT,not soluble
9,MSLKTSKTSTVVLIVPTTWSPFFAELVYRMQVELDRIGFKMILANSHADPDEEEEILRMASLNQVTGVITMSYSNIYNFINIGKKLNLVSIERFISEDVPLITSDNYGGGQLAAEKLITFGSKRFLLLRRKTNHYNATDKRTEGFLHIMKENNLPVDIFEASLKENYIEEFIHYLKTHFSGDVLTFDGIFGVTDEYAVIAKQVLFELNPSYLNKVNIIGFDGSKSQEKGSYQIASIRQPVEAMVKAAVKVLKKLIDGEEVPSHYSKVFDVSFVEPERLVEGHHHHHH,soluble
10,MGSDKIHHHHHHMAHPFLRTIFEVVITLYMLHNLYKVLGDDEMDLEEMSSFFNKRVNEYEEHMMNNVGGANQYYIETAKLIPRGKEINILDLGCGTGLELDEIFKINNTVRVTGIDLAENMLRKIKEKHKDKLDRLTLIVGDYFSCDIGEKVFDAALSVETLHHFNHEQKIKLYKKIVRSLKDNGVYIEADYMAPNQDYEDHCFNENKRIRLELGIKDGFYHYDTPCTVENQIKMLYKSGFKSVEKVFKAENTVILLAKK,not soluble
11,MAQMYFYYSAMNAGKSTTLLQSSFNYQERGMTPVIFTAALDDRYGVGKVSSRIGLQSDAHLFRPDTNLYQEIAALHEVEKRHCILIDECQFLSKEQVYQLTEVVDKLHIPVLCYGLRTDFLGELFEGSKYLLSWADKLVELKTICHCGRKANMVIRTDEHGVAIKEGDQVAIGGNDRYVSVCRQHYKEALGKLEHHHHHH,soluble
12,MIATYNTNVGDVLMLITANDKGEKVNFERKGKVARVFIEETGATVAWNIFEAKSLLANLSGNGQVVLSSDDIETLNKELGKSGFSDVLVHDAQPKFVVAEIVEMEDHPDSDHLHICKVNVGFADPVQIVCGAPNAALGLKTVAALPGAMMPNGSLIFPGALRGVQSYGMLCSARELELPNAPEVRGIIELSSDLSAGKAFDSETMWQALEHHHHHH,soluble
13,QKVTSLTACLVDQSLRLDCRHENTSSSPIQYEFSLTRETKKHVLFGTVGVPEHTYRSRTNFTSKYNMKVLYLSAFTSKDEGTYTCALHHSGHSPPISSQNVTVLRDKLVKCEGISLLAQNTSWLLLLLLSLSLLQATDFMSL,not soluble
14,SDDKAFTKELDQWVEQLNECKQLNENQVRTLCEKAKEILTKESNVQEVRCPVTVCGDVHGQFHDLMELFRIGGKSPDTNYLFMGDYVDRGYYSVETVTLLVALKVRYPERITILRGNHESRQITQVYGFYDECLRKYGNANVWKYFTDLFDYLPLTALVDGQIFCLHGGLSPSIDTLDHISPRGAGYTFGQDISETFNHANGLTLVSRAHQLVMEGYNWCHDRNVVTIFSAPNYCYRCGNQAAIMELDDTLKYSFLQFDPAPRRGEPHVTRRTPDYFL,soluble
